# What was measured:
# HeLa Kyoto [1] = assay: solubility in G1/S (NP-40 vs SDS abundance) (log2 ratio); higher = more soluble; conditions: cell cycle stage: G1/S
# HeLa Kyoto [2] = assay: melting temperature (median over replicates), in situ; higher = more thermally stable
# HeLa Kyoto [3] = assay: solubility change mitosis vs G1/S (difference of NP-40 vs SDS log2 ratios) (log2 ratio difference); higher = more soluble in mitosis
# HeLa Kyoto [4] = assay: thermal stability score vs G1/S (z-score of summed log2 fold changes over temperatures); higher = more thermally stable than in G1/S
# [5] = cell cycle stage: early G1 (4.5 h after nocodazole release)
# 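For melting temperature (median over replicates), in situ in this document: HeLa Kyoto cells synchronized by double thymidine or nocodazole block, proteins quantified by TMT10plex mass spectrometry, three independent biological replicates.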
# 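For solubility change mitosis vs G1/S (difference of NP-40 vs SDS log2 ratios) in this document: synchronized HeLa Kyoto cells (double thymidine block for G1/S, nocodazole release for mitosis), protein amounts in NP-40 versus SDS lysates quantified by mass spectrometry, three biological replicates.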
# 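For solubility in G1/S (NP-40 vs SDS abundance) in this document: HeLa Kyoto cells arrested at G1/S by double thymidine block, proteins quantified by TMT10plex mass spectrometry in mild NP-40 versus SDS extracts, three biological replicates.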
# 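For thermal stability score vs G1/S (z-score of summed log2 fold changes over temperatures) in this document: synchronized HeLa Kyoto cells, proteins quantified by TMT10plex mass spectrometry, three biological replicates, mitosis taken 0.5 h after nocodazole release, G1/S directly after double thymidine block.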
Sequence,solubility in G1/S (log2) (HeLa Kyoto [1]),melting temperature (HeLa Kyoto [2]; cell cycle stage: G1/S) [°C],melting temperature (HeLa Kyoto [2]; cell cycle stage: mitosis) [°C],solubility change mitosis (log2) (HeLa Kyoto [3]),thermal stability score (HeLa Kyoto [4]; [5]),thermal stability score (HeLa Kyoto [4]; cell cycle stage: mitosis)
MSDIGDWFRSIPAITRYWFAATVAVPLVGKLGLISPAYLFLWPEAFLYRFQIWRPITATFYFPVGPGTGFLYLVNLYFLYQYSTRLETGAFDGRPADYLFMLLFNWICIVITGLAMDMQLLMIPLIMSVLYVWAQLNRDMIVSFWFGTRFKACYLPWVILGFNYIIGGSVINELIGNLVGHLYFFLMFRYPMDLGGRNFLSTPQFLYRWLPSRRGGVSGFGVPPASMRRAADQNGGGGRHNWGQGFRLGDQ [DERL1],0.00239,51.6,55.3,-0.273,-0.109,-0.882
MSDKSELKAELERKKQRLAQIREEKKRKEEERKKKETDQKKEAVAPVQEESDLEKKRREAEALLQSMGLTPESPIVFSEYWVPPPMSPSSKSVSTPSEAGSQDSGDGAVGSRTLHWDTDPSVLQLHSDSDLGRGPIKLGMAKITQVDFPPREIVTYTKETQTPVMAQPKEDEEEDDDVVAPKPPIEPEEEKTLKKDEENDSKAPPHELTEEEKQQILHSEEFLSFFDHSTRIVERALSEQINIFFDYSGRDLEDKEGEIQAGAKLSLNRQFFDERWSKHRVVSCLDWSSQYPELLVASYNNNEDAPHEPDGVALVWNMKYKKTTPEYVFHCQSAVMSATFAKFHPNLVVGGTYSGQIVLWDNRSNKRTPVQRTPLSAAAHTHPVYCVNVVGTQNAHNLISISTDGKICSWSLDMLSHPQDSMELVHKQSKAVAVTSMSFPVGDVNNFVVGSEEGSVYTACRHGSKAGISEMFEGHQGPITGIHCHAAVGAVDFSHLFVTSSFDWTVKLWTTKNNKPLYSFEDNADYVYDVMWSPTHPALFACVDGMGRLDLWNLNNDTEVPTASISVEGNPALNRVRWTHSGREIAVGDSEGQIVIYDVGEQIAVPRNDEWARFGRTLAEINANRADAEEEAATRIPA [DYNC1I2],-0.0277,53.2,52.3,-0.0123,-2.66,-3.05
MSDLRITEAFLYMDYLCFRALCCKGPPPARPEYDLVCIGLTGSGKTSLLSKLCSESPDNVVSTTGFSIKAVPFQNAILNVKELGGADNIRKYWSRYYQGSQGVIFVLDSASSEDDLEAARNELHSALQHPQLCTLPFLILANHQDKPAARSVQEIKKYFELEPLARGKRWILQPCSLDDMDALKDSFSQLINLLEEKDHEAVRM [ARL15],0.118,–,53.2,-0.114,-0.792,0.438
MSDNPPRMEVCPYCKKPFKRLKSHLPYCKMIGPTIPTDQKVYQSKPATLPRAKKMKGPIKDLIKAKGKELETENEERNSKLVVDKPEQTVKTFPLPAVGLERAATTKADKDIKNPIQPSFKMLKNTKPMTTFQEETKAQFYASEKTSPKRELAKDLPKSGESRCNPSEAGASLLVGSIEPSLSNQDRKYSSTLPNDVQTTSGDLKLDKIDPQRQELLVKLLDVPTGDCHISPKNVSDGVKRVRTLLSNERDSKGRDHLSGVPTDVTVTETPEKNTESLILSLKMSSLGKIQVMEKQEKGLTLGVETCGSKGNAEKSMSATEKQERTVMSHGCENFNTRDSVTGKESQGERPHLSLFIPRETTYQFHSVSQSSSQSLASLATTFLQEKKAEAQNHHCVPDVKALMESPEGQLSLEPKSDSQFQASHTGCQSPLCSAQRHTPQSPFTNHAAAAGRKTLRSCMGLEWFPELYPGYLGLGVLPGKPQCWNAMTQKPQLISPQGERLSQVSLLERSSTHIRSLEPPAGLTTSNFSLMRLLGAVQKGWIRCNTTIRKSGFGGITMLFTGYFVLCCSWSFRRLKKLCRPLPWKSTVPPCIGVAKTTGDCRSKTCLD [C17ORF80],0.0361,54.5,54,-0.00249,-2.69,-2.84
MSECGGRGGGSSSSEDAEDEGGGGGGPAGSDCLSSSPTLATASSAGRLRRGLRGAFLMARQRPELLCGAVALGCALLLALKFTCSRAKDVIIPAKPPVSFFSLRSPVLDLFQGQLDYAEYVRRDSEVVLLFFYAPWCGQSIAARAEIEQAASRLSDQVLFVAINCWWNQGKCRKQKHFFYFPVIYLYHRSFGPIEYKGPMSAVYIEKFVRRVMKPLLYIPSQSELLDFLSNYEPGVLGYFEFSGSPQPPGYLTFFTSALHSLKKALESTSSPRALVSFTGEWHLETKIYVLDYLGTVRFGVITNKHLAKLVSLVHSGSVYLHRHFNTSLVFPREVLNYTAENICKWALENQETLFRWLRPHGGKSLLLNNELKKGPALFLFIPFNPLAESHPLIDEITEVALEYNNCHGDQVVERLLQHLRRVDAPVLESLALEVPAQLPDPPTITASPCCNTVVLPQWHSFSRTHNVCELCVNQTSGGMKPSSVSVPQCSFFEMAAALDSFYLKEQTFYHVASDSIECSNFLTSYSPFSYYTACCRTISRGVSGFIDSEQGVFEAPTVAFSSLEKKCEVDAPSSVPHIEENRYLFPEVDMTSTNFTGLSCRTNKTLNIYLLDSNLFWLYAERLGAPSSTQVKEFAAIVDVKEESHYILDPKQALMKLTLESFIQNFSVLYSPLKRHLIGSGSAQFPSQHLITEVTTDTFWEVVLQKQDVLLLYYAPWCGFCPSLNHIFIQLARNLPMDTFTVARIDVSQNDLPWEFMVDRLPTVLFFPCNRKDLSVKYPEDVPITLPNLLRFILHHSDPASSPQNVANSPTKECLQSEAVLQRGHISHLEREIQKLRAEISSLQRAQVQVESQLSSARRDEHRLRQQQRALEEQHSLLHAHSEQLQALYEQKTRELQELARKLQELADASENLLTENTWLKILVATMERKLEGRDGAESLAAQREVHPKQPEPSATPQLPGSSPPPANVSATLVSERNKENRTD [TXNDC11],-0.00943,53.5,–,-0.134,0.926,2.27
MSEEIITPVYCTGVSAQVQKQRARELGLGRHENAIKYLGQDYEQLRVRCLQSGTLFRDEAFPPVPQSLGYKDLGPNSSKTYGIKWKRPTELLSNPQFIVDGATRTDICQGALGDCWLLAAIASLTLNDTLLHRVVPHGQSFQNGYAGIFHFQLWQFGEWVDVVVDDLLPIKDGKLVFVHSAEGNEFWSALLEKAYAKVNGSYEALSGGSTSEGFEDFTGGVTEWYELRKAPSDLYQIILKALERGSLLGCSIDISSVLDMEAITFKKLVKGHAYSVTGAKQVNYRGQVVSLIRMRNPWGEVEWTGAWSDSSSEWNNVDPYERDQLRVKMEDGEFWMSFRDFMREFTRLEICNLTPDALKSRTIRKWNTTLYEGTWRRGSTAGGCRNYPATFWVNPQFKIRLDETDDPDDYGDRESGCSFVLALMQKHRRRERRFGRDMETIGFAVYEVPPELVGQPAVHLKRDFFLANASRARSEQFINLREVSTRFRLPPGEYVVVPSTFEPNKEGDFVLRFFSEKSAGTVELDDQIQANLPDEQVLSEEEIDENFKALFRQLAGEDMEISVKELRTILNRIISKHKDLRTKGFSLESCRSMVNLMDRDGNGKLGLVEFNILWNRIRNYLSIFRKFDLDKSGSMSAYEMRMAIESAGFKLNKKLYELIITRYSEPDLAVDFDNFVCCLVRLETMFRFFKTLDTDLDGVVTFDLFKWLQLTMFA [CAPN1],-0.203,55.9,56.5,-0.164,-0.914,-1.67
MSEGNAAGEPSTPGGPRPLLTGARGLIGRRPAPPLTPGRLPSIRSRDLTLGGVKKKTFTPNIISRKIKEEPKEEVTVKKEKRERDRDRQREGHGRGRGRPEVIQSHSIFEQGPAEMMKKKGNWDKTVDVSDMGPSHIINIKKEKRETDEETKQILRMLEKDDFLDDPGLRNDTRNMPVQLPLAHSGWLFKEENDEPDVKPWLAGPKEEDMEVDIPAVKVKEEPRDEEEEAKMKAPPKAARKTPGLPKDVSVAELLRELSLTKEEELLFLQLPDTLPGQPPTQDIKPIKTEVQGEDGQVVLIKQEKDREAKLAENACTLADLTEGQVGKLLIRKSGRVQLLLGKVTLDVTMGTACSFLQELVSVGLGDSRTGEMTVLGHVKHKLVCSPDFESLLDHKHR [POLR3D],0.144,–,48.8,-0.118,-0.688,-1.1
MSELTKELMELVWGTKSSPGLSDTIFCRWTQGFVFSESEGSALEQFEGGPCAVIAPVQAFLLKKLLFSSEKSSWRDCSEEEQKELLCHTLCDILESACCDHSGSYCLVSWLRGKTTEETASISGSPAESSCQVEHSSALAVEELGFERFHALIQKRSFRSLPELKDAVLDQYSMWGNKFGVLLFLYSVLLTKGIENIKNEIEDASEPLIDPVYGHGSQSLINLLLTGHAVSNVWDGDRECSGMKLLGIHEQAAVGFLTLMEALRYCKVGSYLKSPKFPIWIVGSETHLTVFFAKDMALVAPEAPSEQARRVFQTYDPEDNGFIPDSLLEDVMKALDLVSDPEYINLMKNKLDPEGLGIILLGPFLQEFFPDQGSSGPESFTVYHYNGLKQSNYNEKVMYVEGTAVVMGFEDPMLQTDDTPIKRCLQTKWPYIELLWTTDRSPSLN [FAM188A],0.00352,–,52.9,-0.147,-0.555,-1.31

# From the supplement of paper PMC5998384
